In publication PMC9076600, “Ultrasensitive detection of Staphylococcal enterotoxin B in milk based on target-triggered assembly of the flower like nucleic acid nanostructure†”:

Columns and labels:
Test in all cases: Binding buffer not stated; […] (50 uM) […]
OVA = OVA (UniProt P01012 2-386)
[1] = target: Staphylococcal enterotoxin A (SEA) (UniProt P0A0L2 25-257)
[2] = target: Staphylococcal enterotoxin B (SEB) (UniProt P01552 28-266)
Sequence of Staphylococcal enterotoxin B (SEB) (P01552 28-266): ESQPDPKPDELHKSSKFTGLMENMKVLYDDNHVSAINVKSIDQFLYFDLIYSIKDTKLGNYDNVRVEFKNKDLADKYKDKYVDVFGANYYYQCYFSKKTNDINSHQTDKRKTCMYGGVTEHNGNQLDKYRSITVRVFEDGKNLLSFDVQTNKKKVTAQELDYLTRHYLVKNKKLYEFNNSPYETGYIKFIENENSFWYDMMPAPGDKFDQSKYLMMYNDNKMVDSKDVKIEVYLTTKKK

Sequence of Staphylococcal enterotoxin A (SEA) (P0A0L2 25-257): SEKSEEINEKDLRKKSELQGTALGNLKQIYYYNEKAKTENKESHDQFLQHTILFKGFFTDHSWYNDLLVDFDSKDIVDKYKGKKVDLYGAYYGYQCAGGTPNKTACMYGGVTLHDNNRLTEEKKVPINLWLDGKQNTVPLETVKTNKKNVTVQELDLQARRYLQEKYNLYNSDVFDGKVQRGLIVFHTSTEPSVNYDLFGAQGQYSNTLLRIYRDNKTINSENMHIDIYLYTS
Sequence of OVA (P01012 2-386): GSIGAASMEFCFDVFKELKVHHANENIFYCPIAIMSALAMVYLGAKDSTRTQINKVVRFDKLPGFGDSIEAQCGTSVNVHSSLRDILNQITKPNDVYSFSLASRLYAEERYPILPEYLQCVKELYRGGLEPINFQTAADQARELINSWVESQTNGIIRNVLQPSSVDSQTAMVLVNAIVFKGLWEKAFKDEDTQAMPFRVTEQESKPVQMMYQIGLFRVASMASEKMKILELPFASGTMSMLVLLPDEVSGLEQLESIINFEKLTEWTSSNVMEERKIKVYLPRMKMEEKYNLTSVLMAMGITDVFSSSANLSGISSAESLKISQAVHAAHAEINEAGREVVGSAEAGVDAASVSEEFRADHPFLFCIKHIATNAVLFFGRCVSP

B1: SEB aptamer (ssDNA)
DNA: GGTATTGAGGGTCGCATCCACTGGTCGTTGTCTGTTGTCTGTTATGTTGTTTCGTGATGGCTCTAACTCTCCTCT
**Q.** What does the source list for B1?
**A.** binding result (OVA): no binding; binding result [1]: no binding; binding result [2]: binds
